Assay results as given in PMC6592955.
Blank lines part the entries; values can stand above or below the substance they belong to.

Assays:
calmodulin (CaM) = calmodulin (CaM) (UniProt P0DP26); experiment: 2pFLIM-FRET in single dendritic spines; settings: reference: wild type
[1] = biological target: mEGFP-CaMKIIα (wildtype) (Rattus norvegicus) (UniProt P11275); experiment: FRET or BRET; 2pFLIM-FRET in single dendritic spines of CA1 pyramidal neurons, organotypic hippocampal slices; glutamate uncaging at near physiological temperature (34–35 °C); Supplementary Fig. 2
[2] = biological target: mEGFP-CaMKIIα (wildtype) (Rattus norvegicus) (UniProt P11275); experiment: FRET or BRET; 2pFLIM-FRET in single dendritic spines of CA1 pyramidal neurons, organotypic hippocampal slices; single glutamate uncaging pulse; room temperature; decay fitted with a single exponential; T286A in slices of Camk2a^T286A knock-in mice
[3] = biological target: mEGFP-CaMKIIα^T286A (Rattus norvegicus) (UniProt P11275); experiment: FRET or BRET; 2pFLIM-FRET in single dendritic spines of CA1 pyramidal neurons, organotypic hippocampal slices; glutamate uncaging at near physiological temperature (34–35 °C); Supplementary Fig. 2
[4] = biological target: mEGFP-CaMKIIα^T286A (Rattus norvegicus) (UniProt P11275); experiment: FRET or BRET; 2pFLIM-FRET in single dendritic spines of CA1 pyramidal neurons, organotypic hippocampal slices; single glutamate uncaging pulse; room temperature; decay fitted with a single exponential; T286A in slices of Camk2a^T286A knock-in mice
[5] = biological target: mEGFP-CaMKIIα^T305A/T306A (Rattus norvegicus) (UniProt P11275); experiment: as above

other: dissociation time constant (calmodulin (CaM); sites T305,T306): stronger; reference 2.9 ± 0.3
other: fast dissociation time constant (calmodulin (CaM); sites T305,T306): stronger; reference 3.2 ± 0.6
Substance: CaMKIIα (from UniProt P11275) T305A/T306A

Substance: mCherry-CaM (from UniProt P0DP26 1-149) (natural protein; other documents disagree on this pair)
dissociation time constant (tau) [1]: 0.4 s
dissociation time constant (tau) [2]: 2.9 s
koff [2]: 0.33 s⁻¹

Substance: mCherry-CaM (from UniProt P0DP26 1-149) (natural protein)
dissociation time constant (tau) [3]: 0.3 s
dissociation time constant (tau) [4]: 1.2 s
dissociation time constant (tau) [5]: 7.5 s

other: dissociation time constant (calmodulin (CaM); sites T286): weaker; reference 2.9 ± 0.3
other: fast dissociation time constant (calmodulin (CaM); sites T286): weaker; reference 3.2 ± 0.6
Substance: CaMKIIα (from UniProt P11275) T286A
